# Experimental data taken from patent US20030118612A1 (MAXYGEN, published 2003).
# Changes are numbered by the printed parent chain. In names and notes the source's numbering stands.
# T1: human G-CSF receptor (human, UniProt Q99062 25-836)
# T1 sequence (looked up): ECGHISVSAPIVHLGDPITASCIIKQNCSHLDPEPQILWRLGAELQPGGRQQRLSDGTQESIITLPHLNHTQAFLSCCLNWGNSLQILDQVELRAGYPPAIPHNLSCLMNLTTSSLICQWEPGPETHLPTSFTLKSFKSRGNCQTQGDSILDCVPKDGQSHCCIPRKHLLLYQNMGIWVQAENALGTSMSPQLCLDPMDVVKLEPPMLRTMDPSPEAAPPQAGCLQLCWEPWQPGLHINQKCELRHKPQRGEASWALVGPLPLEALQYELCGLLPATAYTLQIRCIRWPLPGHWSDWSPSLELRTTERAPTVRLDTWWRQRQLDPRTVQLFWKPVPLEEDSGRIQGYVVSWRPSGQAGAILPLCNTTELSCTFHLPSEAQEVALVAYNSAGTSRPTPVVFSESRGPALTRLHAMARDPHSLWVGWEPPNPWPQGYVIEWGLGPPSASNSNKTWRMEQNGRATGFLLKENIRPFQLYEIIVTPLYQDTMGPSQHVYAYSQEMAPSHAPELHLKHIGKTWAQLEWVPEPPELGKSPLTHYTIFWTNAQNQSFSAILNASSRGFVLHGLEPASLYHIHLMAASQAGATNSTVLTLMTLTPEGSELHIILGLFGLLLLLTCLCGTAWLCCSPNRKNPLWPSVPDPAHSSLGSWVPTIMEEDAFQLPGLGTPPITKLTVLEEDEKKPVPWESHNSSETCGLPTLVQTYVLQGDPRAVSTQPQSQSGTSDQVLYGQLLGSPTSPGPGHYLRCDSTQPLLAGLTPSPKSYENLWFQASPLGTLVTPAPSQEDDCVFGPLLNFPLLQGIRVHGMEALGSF
# B1: G-CSF variant K16/34/40R S76 conjugated to SPA-PEG 5000 (ligand)
# chain: TPLGPASSLPQSFLLRCLEQVRKIQGDGAALQERLCATYRLCHPEELVLLGHSLGIPWAPLSSCPSQALQLAGCLKQLHSGLFLYQGLLQALEGISPELGPTLDTLQLDVADFATTIWQQMEELGMAPALQPTQGAMPAFASAFQRRAGGVLVASHLQSFLEVSYRVLRHLAQP
# modifications: SPA-PEG 5000 conjugated to the available PEGylation sites
# B2: G-CSF variant K16/34/40R S155K, non-conjugated (ligand)
# chain: B1 chain with K76S, S155K
# B3: G-CSF variant K16/34/40R R147K conjugated to SPA-PEG 5000 (ligand)
# chain: B1 chain with K76S, R147K
# modifications: SPA-PEG 5000 conjugated to the available PEGylation sites
# B4: G-CSF variant K16/34/40R T133K, non-conjugated (ligand)
# chain: B1 chain with K76S, T133K
# B5: G-CSF variant K16/34/40R S80K, non-conjugated (ligand)
# chain: B1 chain with K76S, S80K
# B6: G-CSF variant K16/34/40R Q90K Q120K conjugated to SPA-PEG 5000 (ligand)
# chain: B1 chain with K76S, Q90K, Q120K
# modifications: SPA-PEG 5000 conjugated to the available PEGylation sites
# B7: G-CSF variant K16/34/40R Q134K conjugated to SPA-PEG 5000 (ligand)
# chain: B1 chain with K76S, Q134K
# modifications: SPA-PEG 5000 conjugated to the available PEGylation sites
# B8: G-CSF variant K16/34/40R T105K, non-conjugated (ligand)
# chain: B1 chain with K76S, T105K
# B9: G-CSF variant K16/34/40R S142K, non-conjugated (ligand)
# chain: B1 chain with K76S, S142K
# B10: G-CSF variant K16/34/40R S159K conjugated to SPA-PEG 5000 (ligand)
# chain: B1 chain with K76S, S159K
# modifications: SPA-PEG 5000 conjugated to the available PEGylation sites
# B11: G-CSF variant 16Q, non-conjugated (ligand)
# chain: B1 chain with R16Q, R34K, R40K, K76S
# B12: G-CSF variant K16/34/40R S155K conjugated to SPA-PEG 5000 (ligand)
# chain: B1 chain with K76S, S155K
# modifications: SPA-PEG 5000 conjugated to the available PEGylation sites
# B13: G-CSF variant K16/34/40R D104K, non-conjugated (ligand)
# chain: B1 chain with K76S, D104K
# B14: G-CSF variant K16/34/40R Q90K S159K, non-conjugated (ligand)
# chain: B1 chain with K76S, Q90K, S159K
# B15: G-CSF variant K16/34/40R T105K conjugated to SPA-PEG 5000 (ligand)
# chain: B1 chain with K76S, T105K
# modifications: SPA-PEG 5000 conjugated to the available PEGylation sites
# B16: G-CSF variant K16/34/40R R147K, non-conjugated (ligand)
# chain: B1 chain with K76S, R147K
# B17: G-CSF variant K16/34/40R T105K Q120K conjugated to SPA-PEG 5000 (ligand)
# chain: B1 chain with K76S, T105K, Q120K
# modifications: SPA-PEG 5000 conjugated to the available PEGylation sites
# B18: G-CSF variant K16/34/40R Q134K, non-conjugated (ligand)
# chain: B1 chain with K76S, Q134K
# B19: G-CSF variant K16/34/40R Q70K Q120K conjugated to SPA-PEG 5000 (ligand)
# chain: B1 chain with Q70K, K76S, Q120K
# modifications: SPA-PEG 5000 conjugated to the available PEGylation sites
# B20: G-CSF variant K16/34/40R Q90K T105K conjugated to SPA-PEG 5000 (ligand)
# chain: B1 chain with K76S, Q90K, T105K
# modifications: SPA-PEG 5000 conjugated to the available PEGylation sites
# B21: G-CSF variant K16/34/40R T105K Q120K, non-conjugated (ligand)
# chain: B1 chain with K76S, T105K, Q120K
# B22: G-CSF variant K16/34/40R Q90K, non-conjugated (ligand)
# chain: B1 chain with K76S, Q90K
# B23: G-CSF variant K16/34/40R Q70K Q120K, non-conjugated (ligand)
# chain: B1 chain with Q70K, K76S, Q120K
# B24: G-CSF variant 16R conjugated to SPA-PEG 5000 (ligand)
# chain: B1 chain with R34K, R40K, K76S
# modifications: SPA-PEG 5000 conjugated to the available PEGylation sites
# B25: G-CSF variant 16Q conjugated to SPA-PEG 5000 (ligand)
# chain: B1 chain with R16Q, R34K, R40K, K76S
# modifications: SPA-PEG 5000 conjugated to the available PEGylation sites
# B26: G-CSF variant K16/34/40R S142K conjugated to SPA-PEG 5000 (ligand)
# chain: B1 chain with K76S, S142K
# modifications: SPA-PEG 5000 conjugated to the available PEGylation sites
# B27: G-CSF variant K16/34/40R T133K conjugated to SPA-PEG 5000 (ligand)
# chain: B1 chain with K76S, T133K
# modifications: SPA-PEG 5000 conjugated to the available PEGylation sites
# B28: G-CSF variant K16/34/40R Q120K conjugated to SPA-PEG 5000 (ligand)
# chain: B1 chain with K76S, Q120K
# modifications: SPA-PEG 5000 conjugated to the available PEGylation sites
# B29: G-CSF variant K16/34/40R Q70K Q90K conjugated to SPA-PEG 5000 (ligand)
# chain: B1 chain with Q70K, K76S, Q90K
# modifications: SPA-PEG 5000 conjugated to the available PEGylation sites
# B30: G-CSF variant K16/34/40R Q77, non-conjugated (ligand)
# chain: B1 chain with K76S, Q77K
# B31: G-CSF variant K16/34/40R D104K conjugated to SPA-PEG 5000 (ligand)
# chain: B1 chain with K76S, D104K
# modifications: SPA-PEG 5000 conjugated to the available PEGylation sites
# B32: G-CSF variant K16/34/40R Q158, non-conjugated (ligand)
# chain: B1 chain with K76S, Q158K
# B33: G-CSF variant K16/34/40R S80K conjugated to SPA-PEG 5000 (ligand)
# chain: B1 chain with K76S, S80K
# modifications: SPA-PEG 5000 conjugated to the available PEGylation sites
# B34: G-CSF variant K16/34/40R Q90K T105K, non-conjugated (ligand)
# chain: B1 chain with K76S, Q90K, T105K
# B35: G-CSF variant K16/34/40R Q90K Q120K, non-conjugated (ligand)
# chain: B1 chain with K76S, Q90K, Q120K
# B36: G-CSF variant K16/34/40R S159K, non-conjugated (ligand)
# chain: B1 chain with K76S, S159K
# B37: G-CSF variant 23Q, non-conjugated (ligand)
# chain: B1 chain with R16K, K23Q, R34K, R40K, K76S
# B38: G-CSF variant K16/34/40R Q158 conjugated to SPA-PEG 5000 (ligand)
# chain: B1 chain with K76S, Q158K
# modifications: SPA-PEG 5000 conjugated to the available PEGylation sites
# B39: G-CSF variant K16/34/40R Q120K, non-conjugated (ligand)
# chain: B1 chain with K76S, Q120K
# B40: G-CSF variant K16/34/40R Q77 conjugated to SPA-PEG 5000 (ligand)
# chain: B1 chain with K76S, Q77K
# modifications: SPA-PEG 5000 conjugated to the available PEGylation sites
# B41: G-CSF variant K16/34/40R Q90K conjugated to SPA-PEG 5000 (ligand)
# chain: B1 chain with K76S, Q90K
# modifications: SPA-PEG 5000 conjugated to the available PEGylation sites
# Target: T1, human G-CSF receptor
# Assay: cell-based or functional assay
EC50 (% of hG-CSF) conjugated to SPA-PEG 5000,EC50 (% of hG-CSF) non-conjugated,Binder
20 % of hG-CSF,,B1
,20 % of hG-CSF,B2
1 % of hG-CSF,,B3
,30 % of hG-CSF,B4
,10 % of hG-CSF,B5
15 % of hG-CSF,,B6
0.2 % of hG-CSF,,B7
,30 % of hG-CSF,B8
,20 % of hG-CSF,B9
3 % of hG-CSF,,B10
,80 % of hG-CSF,B11
1 % of hG-CSF,,B12
,10 % of hG-CSF,B13
,45 % of hG-CSF,B14
10 % of hG-CSF,,B15
,20 % of hG-CSF,B16
8 % of hG-CSF,,B17
,10 % of hG-CSF,B18
25 % of hG-CSF,,B19
10 % of hG-CSF,,B20
,20 % of hG-CSF,B21

EC50 (% of hG-CSF) conjugated to SPA-PEG 5000,EC50 (% of hG-CSF) non-conjugated,Binder
,30 % of hG-CSF,B22
,25 % of hG-CSF,B23
1 % of hG-CSF,,B24
1 % of hG-CSF,,B25
7 % of hG-CSF,,B26
10 % of hG-CSF,,B27
20 % of hG-CSF,,B28
20 % of hG-CSF,,B29
,1 % of hG-CSF,B30
0.9 % of hG-CSF,,B31
,20 % of hG-CSF,B32
0.2 % of hG-CSF,,B33
,40 % of hG-CSF,B34
,25 % of hG-CSF,B35
,20 % of hG-CSF,B36
,80 % of hG-CSF,B37
5 % of hG-CSF,,B38
,30 % of hG-CSF,B39
0 % of hG-CSF,,B40
20 % of hG-CSF,,B41
